Assay results: PMC9814759, “Enzymatic kinetic resolution of desmethylphosphinothricin indicates that phosphinic group is a bioisostere of carboxyl group” (Communications Chemistry, 2020)

Key:
purified protein [1] = substrate: N[C@@H](CCC(=O)O)C(=O)O; experiment: purified protein; format: biochemical, Escherichia coli; conditions: 0.1 M Pyridine/HCl, pH 4.6, 0.1 mM DTT, 40 µM PLP, discontinuous assay
purified protein [2] = substrate: N[C@@H](CC[PH](=O)O)C(=O)O; experiment: purified protein; format: biochemical, Escherichia coli; conditions: 0.1 M Pyridine/HCl, pH 4.6, 0.1 mM DTT, 40 µM PLP, discontinuous assay

B1: EcGadB (Escherichia coli K-12) (protein)
chain: MDKKQVTDLRSELLDSRFGAKSISTIAESKRFPLHEMRDDVAFQIINDELYLDGNARQNLATFCQTWDDENVHKLMDLSINKNWIDKEEYPQSAAIDLRCVNMVADLWHAPAPKNGQAVGTNTIGSSEACMLGGMAMKWRWRKRMEAAGKPTDKPNLVCGPVQICWHKFARYWDVELREIPMRPGQLFMDPKRMIEACDENTIGVVPTFGVTYTGNYEFPQPLHDALDKFQADTGIDIDMHIDAASGGFLAPFVAPDIVWDFRLPRVKSISASGHKFGLAPLGCGWVIWRDEEALPQELVFNVDYLGGQIGTFAINFSRPAGQVIAQYYEFLRLGREGYTKVQNASYQVAAYLADEIAKLGPYEFICTGRPDEGIPAVCFKLKDGEDPGYTLYDLSERLRLRGWQVPAFTLGGEATDIVVMRIMCRRGFEMDFAELLLEDYKASLKYLSDHPKLQGIAQQNSFKHT
notes: expressed and purified EcGadB (DEAE chromatography); no tag stated; PLP-dependent homohexamer; EC 4.1.1.15
Work on B1 yielded a Km (purified protein [1]) of 0.84 ± 0.09 mM, a kcat (purified protein [1]) of 78.2 ± 2.06 s⁻¹ and a kcat/Km (purified protein [1]) of 92800 ± 10300 M⁻¹ s⁻¹. It also gave a Km (purified protein [2]) of 39.82 ± 5.66 mM, a kcat (purified protein [2]) of 13.9 ± 0.58 s⁻¹ and a kcat/Km (purified protein [2]) of 350 ± 50 M⁻¹ s⁻¹.
